This note sets out measurements from patent publication US20240117038A1 (Ablynx, published 2024).

The target of one test is T1, DCC (human, UniProt P43146).
T1 construct: overexpressed on live cells from an expression plasmid; Tested in the validation titration of the membrane protein array
In words: membrane protein array validation: flow cytometry on unfixed cells expressing the protein, serial dilutions in buffer with 10% human serum albumin, fluorescently labeled secondary antibody that binds ISVDs.

A further test concerns the target T2, FCGR2B (human, UniProt P31994).
T2 construct: overexpressed on live cells from an expression plasmid; Tested in the validation titration of the membrane protein array
T2 sequence (membrane protein, looked up): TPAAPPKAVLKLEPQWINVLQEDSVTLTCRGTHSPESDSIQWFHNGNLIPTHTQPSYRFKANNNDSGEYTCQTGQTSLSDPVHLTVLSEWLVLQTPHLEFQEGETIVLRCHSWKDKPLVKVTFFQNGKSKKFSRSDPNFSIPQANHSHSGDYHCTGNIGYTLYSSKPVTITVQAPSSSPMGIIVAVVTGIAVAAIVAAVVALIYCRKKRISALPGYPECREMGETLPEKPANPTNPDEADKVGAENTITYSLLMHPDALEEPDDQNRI
The test is described as above.

The next test has as its target T3, MCAM (human, UniProt P43121 24-646).
T3 construct: whole, on cells; also called MUC18; cell surface glycoprotein MUC18
The description is as above.

In the next test the target is T4, DSC1.
T4 construct: Tested in the validation titration of the membrane protein array
T4 chain: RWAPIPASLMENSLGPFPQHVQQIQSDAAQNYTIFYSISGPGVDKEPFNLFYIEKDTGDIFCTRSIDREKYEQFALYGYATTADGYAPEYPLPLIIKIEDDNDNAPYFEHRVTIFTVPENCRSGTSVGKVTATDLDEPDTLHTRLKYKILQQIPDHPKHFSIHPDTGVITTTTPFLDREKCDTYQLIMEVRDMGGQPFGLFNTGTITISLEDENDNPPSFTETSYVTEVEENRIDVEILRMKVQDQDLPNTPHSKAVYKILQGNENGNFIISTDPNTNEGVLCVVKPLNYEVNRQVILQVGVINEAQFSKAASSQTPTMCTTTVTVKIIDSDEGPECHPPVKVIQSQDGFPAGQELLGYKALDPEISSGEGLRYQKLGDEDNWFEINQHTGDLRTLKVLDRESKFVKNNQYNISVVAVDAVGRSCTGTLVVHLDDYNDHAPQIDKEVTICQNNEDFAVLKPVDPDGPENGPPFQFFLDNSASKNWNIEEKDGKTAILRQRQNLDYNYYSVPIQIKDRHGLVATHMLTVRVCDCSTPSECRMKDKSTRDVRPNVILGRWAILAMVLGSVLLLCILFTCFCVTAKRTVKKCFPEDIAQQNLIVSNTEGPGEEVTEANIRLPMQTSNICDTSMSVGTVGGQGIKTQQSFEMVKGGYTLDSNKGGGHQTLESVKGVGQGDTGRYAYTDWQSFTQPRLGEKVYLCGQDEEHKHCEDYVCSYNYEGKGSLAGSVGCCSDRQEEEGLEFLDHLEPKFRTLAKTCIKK
Described as above.

Test [1] has as its target T5, human CX3CR1 (human, UniProt P49238 1-355).
T5 construct: Overexpressed on CHO K1, Ba/F3 or HEK293T cells; also called huCX3CR1; hCX3CR1
T5 sequence: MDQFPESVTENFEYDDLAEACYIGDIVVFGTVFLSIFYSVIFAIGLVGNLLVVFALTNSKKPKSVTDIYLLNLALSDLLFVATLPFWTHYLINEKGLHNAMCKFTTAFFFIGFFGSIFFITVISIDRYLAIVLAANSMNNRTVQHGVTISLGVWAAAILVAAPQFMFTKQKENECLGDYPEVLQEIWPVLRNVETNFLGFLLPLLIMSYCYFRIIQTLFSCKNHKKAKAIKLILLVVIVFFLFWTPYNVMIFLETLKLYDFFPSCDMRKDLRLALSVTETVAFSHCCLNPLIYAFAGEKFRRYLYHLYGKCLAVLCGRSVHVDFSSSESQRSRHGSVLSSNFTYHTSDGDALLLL
Description: MSD-SET in-solution affinity on cell expressed human CX3CR1, 30 uM HSA, geometric mean of N = 3. As to the method: (§1) The affinity was determined on 3 independent assay occasions.

Another test has as its target T6, cynomolgus CX3CR1 (cynomolgus monkey (Macaca fascicularis), UniProt P49238 1-355 (human entry)).
T6 construct: Overexpressed on CHO K1 cells; also called cyno CX3CR1; cyCX3CR1
T6 chain: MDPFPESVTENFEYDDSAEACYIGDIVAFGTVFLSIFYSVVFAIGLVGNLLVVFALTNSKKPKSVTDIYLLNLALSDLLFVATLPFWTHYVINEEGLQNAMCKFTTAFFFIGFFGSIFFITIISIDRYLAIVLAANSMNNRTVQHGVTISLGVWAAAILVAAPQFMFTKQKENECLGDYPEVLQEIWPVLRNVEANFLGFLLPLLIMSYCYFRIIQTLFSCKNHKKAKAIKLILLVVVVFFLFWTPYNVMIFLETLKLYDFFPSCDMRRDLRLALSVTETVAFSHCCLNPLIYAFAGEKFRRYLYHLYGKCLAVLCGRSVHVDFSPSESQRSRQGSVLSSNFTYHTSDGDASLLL
In words: MSD-SET in-solution affinity on cell expressed cyno CX3CR1, 30 uM HSA, geometric mean of N = 3. As to the method:
as §1

Test [2] has as its target T5, human CX3CR1. Description: cell-based or functional assay.

In general, Kd refers to the equilibrium constant for the complex coming apart.

T1 sequence (P43146 26-1447 limits assumed): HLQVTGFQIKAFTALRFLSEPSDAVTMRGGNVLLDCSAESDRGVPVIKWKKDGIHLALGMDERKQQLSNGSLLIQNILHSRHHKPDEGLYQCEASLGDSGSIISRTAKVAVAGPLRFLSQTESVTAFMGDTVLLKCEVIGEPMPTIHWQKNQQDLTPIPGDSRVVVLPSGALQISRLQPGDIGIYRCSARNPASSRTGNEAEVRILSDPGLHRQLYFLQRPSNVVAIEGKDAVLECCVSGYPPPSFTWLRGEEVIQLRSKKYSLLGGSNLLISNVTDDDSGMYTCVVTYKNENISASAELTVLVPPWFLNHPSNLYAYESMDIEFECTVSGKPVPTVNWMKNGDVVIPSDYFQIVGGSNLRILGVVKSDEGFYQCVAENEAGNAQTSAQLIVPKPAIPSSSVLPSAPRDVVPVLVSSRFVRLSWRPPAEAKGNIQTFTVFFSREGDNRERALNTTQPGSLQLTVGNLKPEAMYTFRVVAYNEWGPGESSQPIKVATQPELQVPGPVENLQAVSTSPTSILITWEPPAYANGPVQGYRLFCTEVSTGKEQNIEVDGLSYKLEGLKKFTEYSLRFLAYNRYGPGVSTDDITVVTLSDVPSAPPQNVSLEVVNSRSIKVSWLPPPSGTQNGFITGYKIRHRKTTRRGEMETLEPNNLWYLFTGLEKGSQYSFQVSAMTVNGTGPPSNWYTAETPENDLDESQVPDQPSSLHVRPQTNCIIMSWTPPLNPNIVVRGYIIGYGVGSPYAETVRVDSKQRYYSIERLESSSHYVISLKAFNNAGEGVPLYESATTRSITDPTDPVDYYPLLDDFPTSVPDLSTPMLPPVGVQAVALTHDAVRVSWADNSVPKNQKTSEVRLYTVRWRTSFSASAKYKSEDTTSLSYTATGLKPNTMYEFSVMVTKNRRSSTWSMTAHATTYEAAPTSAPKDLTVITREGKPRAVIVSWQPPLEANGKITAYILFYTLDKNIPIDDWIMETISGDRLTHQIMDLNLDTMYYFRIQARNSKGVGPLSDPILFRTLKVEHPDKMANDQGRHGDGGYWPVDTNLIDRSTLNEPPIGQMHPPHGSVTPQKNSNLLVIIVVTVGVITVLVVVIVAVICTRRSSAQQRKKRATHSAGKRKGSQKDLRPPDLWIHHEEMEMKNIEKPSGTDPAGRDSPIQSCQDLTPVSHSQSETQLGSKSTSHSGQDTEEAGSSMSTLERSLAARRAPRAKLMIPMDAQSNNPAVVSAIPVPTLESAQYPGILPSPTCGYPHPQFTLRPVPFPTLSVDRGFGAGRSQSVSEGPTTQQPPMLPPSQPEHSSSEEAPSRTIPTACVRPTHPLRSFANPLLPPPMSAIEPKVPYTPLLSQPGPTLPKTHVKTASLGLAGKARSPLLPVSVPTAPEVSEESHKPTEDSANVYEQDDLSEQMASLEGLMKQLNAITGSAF

B1: A041600035 (VHH)
chain: DVQLVESGGGSVQPGGSLRLSCAASGSIFSSTAMAWYRQAPGKQRDLVAVISTVGITKYADSVKGRFTISRDNAKNTVYLQMNSLRPEDTALYYCTSDARRGWDTRYWGQGTLVTVSSGGGGSGGGSEVQLVESGGGSVQPGGSLRLSCAASGSIFSSTAMAWYRQAPGKQRDLVAVISTVGITKYADSVKGRFTISRDNAKNTVYLQMNSLRPEDTALYYCTSDARRGWDTRYWGQGTLVTVSSGGGGSGGGSEVQLVESGGGVVQPGGSLRLSCAASGFTFRSFGMSWVRQAPGKGPEWVSSISGSGSDTLYADSVKGRFTISRDNSKNTLYLQMNSLRPEDTALYYCTIGGSLSRSSQGTLVTVSSA
notes: Trivalent ISVD construct (two anti-CX3CR1 ISVDs, one anti-albumin ISVD), C-terminal alanine included in the entry; also called 54A12_SO (E1D)-9GS-54A12_SO-9GS-ALB23002-A
Consider B1, for which the binding result with DCC is given as “no binding (tested: 20 ug/ml)”. Further, the binding result with FCGR2B is “no binding (tested: 20 ug/ml)”. Also, in the test with MCAM, the binding result is on record as “no binding (tested: 20 ug/ml)”. Also, the binding result with DSC1 is recorded as “no binding (tested: 20 ug/ml)”. This molecule returned a Kd in the test with human CX3CR1 [1] of 0.13 nM. In the test with cynomolgus CX3CR1, this molecule came in with a dissociation constant (Kd) of 0.11 nM. Moreover, in the test with human CX3CR1 [2], the “arbitrary migration index (GM), classical monocytes of healthy donors, 625 pM” value was 1.15 fold change to media control; the “arbitrary migration index (GM), classical monocytes of healthy donors, 2500 pM” value is 1.09 fold change to media control; the “arbitrary migration index (GM), classical monocytes of healthy donors, 10000 pM” value was 1.05 fold change to media control; the “arbitrary migration index (GM), classical monocytes of healthy donors, 40000 pM” value is 1.27 fold change to media control. Moreover, in the test with human CX3CR1 [2], the “arbitrary migration index (GM), intermediate monocytes of healthy donors, 625 pM” value is 1.26 fold change to media control; the “arbitrary migration index (GM), intermediate monocytes of healthy donors, 2500 pM” value was 1.14 fold change to media control; the “arbitrary migration index (GM), intermediate monocytes of healthy donors, 10000 pM” value was 1.04 fold change to media control; the “arbitrary migration index (GM), intermediate monocytes of healthy donors, 40000 pM” value is 1.13 fold change to media control. Further, in the test with human CX3CR1 [2], the “arbitrary migration index (GM), non-classical monocytes of healthy donors, 625 pM” value is 1.05 fold change to media control; the “arbitrary migration index (GM), non-classical monocytes of healthy donors, 2500 pM” value was 1.08 fold change to media control; the “arbitrary migration index (GM), non-classical monocytes of healthy donors, 10000 pM” value was 0.82 fold change to media control; the “arbitrary migration index (GM), non-classical monocytes of healthy donors, 40000 pM” value was 0.91 fold change to media control.
